Reference: PMC9692976, “Characterization of a Glycolipid Synthase Producing α-Galactosylceramide in Bacteroides fragilis” (International Journal of Molecular Sciences, 2022)

Legend:
[1] = molecular target: T1, αGalCer_GT (BF9343_3149; αCerGal_GT) (Bacteroides fragilis, UniProt A0A380YRQ3); assay: HPLC with fluorescence detection of αGalCer-NBD, initial rates; assay type: biochemical; conditions: substrate inhibition constant; second site; 1.25 mM UDP-Gal, Cer-NBD solubilized with equimolar BSA, pH 7.5, 37 °C; labelled compound
T1 construct: full length, SUMO fusion at N-terminus and Strep-tag (C-terminal in Results; Methods also says N-terminal Strep-tag), tags kept, codon-optimised gene, E. coli BL21(DE3) Star, StrepTrap purified
T1 sequence (A0A380YRQ3 entry or part of it): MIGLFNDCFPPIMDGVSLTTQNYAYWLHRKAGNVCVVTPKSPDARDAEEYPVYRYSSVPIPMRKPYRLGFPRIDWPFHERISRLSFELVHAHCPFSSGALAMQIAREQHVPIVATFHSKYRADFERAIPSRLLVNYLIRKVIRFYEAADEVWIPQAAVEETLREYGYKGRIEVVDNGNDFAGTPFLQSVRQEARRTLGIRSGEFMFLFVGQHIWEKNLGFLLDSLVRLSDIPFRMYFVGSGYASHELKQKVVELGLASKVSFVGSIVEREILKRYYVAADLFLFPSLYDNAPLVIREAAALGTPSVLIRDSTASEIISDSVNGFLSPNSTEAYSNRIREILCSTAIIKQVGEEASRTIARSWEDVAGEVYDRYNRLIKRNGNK

[2] = test system: CCCCCCCCCCCCC/C=C/[C@@H](O)[C@H](CO)NC(=O)CCCCCNc1ccc([N+](=O)[O-])c2nonc12; assay: purified protein; conditions: 1.25 mM UDP-Gal, Cer-NBD solubilized with equimolar BSA, pH 7.5, 37 °C, fit with substrate inhibition, labelled compound
[3] = test system: O=c1ccn([C@@H]2O[C@H](COP(=O)(O)OP(=O)(O)O[C@H]3O[C@H](CO)[C@H](O)[C@H](O)[C@H]3O)[C@@H](O)[C@H]2O)c(=O)[nH]1; assay: purified protein; conditions: 25 µM Cer-NBD with equimolar BSA, pH 7.5, 37 °C, fit with substrate inhibition

| Molecule | KI [1] [µM] | Km [2] [µM] | Km [3] [µM] |
| --- | --- | --- | --- |
| CCCCCCCCCCCCC/C=C/[C@@H](O)[C@H](CO)NC(=O)CCCCCNc1ccc([N+](=O)[O-])c2nonc12 [Cer-NBD, N-[6-[(7-nitro-2-1,3-benzoxadiazol-4-yl)amino]hexanoyl]-D-erythro-sphin-gosine] | 161 | – | – |
| αGalCer_GT (BF9343_3149; αCerGal_GT) (Bacteroides fragilis NCTC 9343) | – | 4.6 | 218 |
